In one assay the target is T1, human CD9 (human, UniProt P21926 2-228).
T1 construct: The cells expressing full-length CD9 that were used to select the antibodies are not described; In the functional assays CD9 stands on human PBMC; also called full-length cell-expressed CD9; Tetraspanin-29
T1 sequence: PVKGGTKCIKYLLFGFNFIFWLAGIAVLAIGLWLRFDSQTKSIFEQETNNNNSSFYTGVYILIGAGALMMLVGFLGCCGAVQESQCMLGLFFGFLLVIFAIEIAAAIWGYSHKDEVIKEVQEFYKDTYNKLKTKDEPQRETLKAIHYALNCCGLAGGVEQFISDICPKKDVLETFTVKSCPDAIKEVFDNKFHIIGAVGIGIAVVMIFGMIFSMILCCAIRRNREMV
Description: selection on cells expressing full-length CD9; method not described.

The target in assay [1] is T2, recombinant human CD9 long extracellular loop 2-human Fc fusion protein (10015-CD, R&D Systems) (human, UniProt P21926 112-195).
T2 construct: Bought reagent; also called CD9-loop2; long extracellular loop 2 peptide; not shown: human Fc
T2 sequence: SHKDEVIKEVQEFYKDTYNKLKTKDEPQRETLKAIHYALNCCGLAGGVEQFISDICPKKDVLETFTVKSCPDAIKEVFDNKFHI
Description: biolayer interferometry (Octet RED384), CD9 loop 2-human Fc captured on AHC biosensors, Fab at 10 µg/mL. The text has this: CD9 contains two extracellular loops: a short extracellular loop (loop 1: 34-55 in SEQ ID NO:2) and a long extracellular loop (loop 2: 112-195 in SEQ ID NO:2). We used biolayer interferometry to assess binding of our panel of CD9 Fab-Y antibodies (selected for their ability to bind full-length cell-expressed CD9) to the long extracellular loop 2 peptide, using the Octet® RED384 System (ForteBio) with Anti-hlgG Fc Capture (AHC) Biosensors (ForteBio) at room temperature. Firstly, an array of 8 sensors was dipped in kinetics buffer (PBS 0.1%, BSA 0.02%, Tween 20) for 120 seconds to provide a baseline signal. Sensors were then moved to wells containing 200 μl of recombinant human CD9 long extracellular loop 2-human Fc fusion protein (10015-CD, R&D Systems®) at 2 μg/mL in kinetics buffer to immobilize the protein to the biosensor (100 seconds), followed by a second baseline step (180 seconds) in kinetics buffer to equilibrate the biosensors now coated with the CD9 long extracellular loop 2-human Fc fusion protein. No detachment of the peptide was observed during this step. Sensors were then dipped in wells containing one of the anti-CD9 Fab (10 μg/mL) to evaluate association of each antibody to CD9-loop2 (120 seconds), followed by dissociation in kinetics buffer (600 seconds). Anti-CD137 Fab-Y (11175) was used as negative control during the antibody association step. […]

B1: anti-CD9 Fab-Y antibody 7272 (Fab, V domains shown)
VH: QSLEESGGRLVTPGTPLTLTCTVSGFSLSSYAMGWVRQAPGKGLEWIGAIGSITATGYARWAKGRFSISKTSTTVDLKMTSPTTEDTATYFCAREIYVGSAYAFDIWGPGTLVTVSS
VL: AYDMTQTPASVEVAVGDTVTIKCQASQSISNYLAWYQQKPGQPPKLLIYLASTLASGVPSRFKGSGSGTEFTLTISDLECADAATYYCQQGYIDNVNKGFGGGTEVVVK
notes: also called VR7272
In the case of B1, the binding result (with human CD9; in assay [1]) was “binds” throughout.

The record behind these values is patent publication US20230192900A1 (published 2023).
